Data published in patent US20220033460A1, “IDENTIFICATION AND USE OF T CELL EPITOPES IN DESIGNING DIAGNOSTIC AND THERAPEUTIC APPROACHES FOR COVID-19” (priority 2020, published 2022).
Like-named read-outs stand apart in the source and are kept apart here.

Columns and labels:
DRB01*11:01 = settings: chains peptide; modification not given
DRB01*04:04 [1] = settings: chains peptide; modification not given
DRB01*07:01 = settings: chains peptide; modification not given
DRB01*15:01 [2] = settings: chains peptide; modification not given
DRB01*04:04 [3] = settings: chains peptide; modification not given; remark: listed apart in the source
DRB01*15:01 [4] = settings: chains peptide; modification not given; remark: listed apart in the source
DRB1*07:01 [5] = settings: modification not given
DRB1*15:01 [6] = settings: modification not given
DRB1*07:01 [7] = settings: modification not given; remark: listed apart in the source
DRB1*15:01 [8] = settings: modification not given; remark: listed apart in the source
I-Ab (mouse), P14434 = target: T1, I-Ab (mouse), P14434; assay: biochemically tested I-Ab binding affinity (method not told)
T1 chain 1: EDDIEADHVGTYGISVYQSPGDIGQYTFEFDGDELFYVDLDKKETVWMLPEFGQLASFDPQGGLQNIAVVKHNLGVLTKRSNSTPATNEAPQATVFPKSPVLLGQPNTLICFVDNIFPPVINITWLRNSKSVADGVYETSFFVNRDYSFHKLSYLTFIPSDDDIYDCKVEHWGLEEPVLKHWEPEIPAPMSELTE
T1 chain 2: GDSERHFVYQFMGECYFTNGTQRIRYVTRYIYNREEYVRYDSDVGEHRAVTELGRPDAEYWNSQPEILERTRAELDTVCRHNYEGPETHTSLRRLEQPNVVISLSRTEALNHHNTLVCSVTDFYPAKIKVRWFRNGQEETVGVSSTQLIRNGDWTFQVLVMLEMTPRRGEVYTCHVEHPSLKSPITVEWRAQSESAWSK

[9] = target: M protein peptide on HLA-A*02:01 (human); assay: barcoded tetramer library on ex vivo CD8+ T cells, single-cell sequencing; T cell clone or line; settings: chains Valpha:Vbeta
[10] = target: SARS-CoV-2 peptide on HLA-A*02:01 (human); assay: as above; settings: chains Valpha:Vbeta

## GAVILRGHLRIAGHHLGR [SEQ ID NO 312]
DRB01*11:01
  IC50: 0.383 µM
DRB01*04:04 [1]
  IC50: 9.54 µM
DRB01*07:01
  IC50: 14.5 µM
DRB01*15:01 [2]
  IC50: 3.22 µM

## VILRGHLRIAGHHLGRCDIKDLP [SEQ ID NO 310]
DRB01*04:04 [3]
  IC50: 1.91 µM
DRB01*15:01 [4]
  IC50: 5.43 µM

## AEIRASANLAATKMS [… (position 1016)]
DRB1*07:01 [5]
  IC50: 0.395 µM
DRB1*15:01 [6]
  IC50: 0.578 µM

## PQIITTDNTFVSGNC [… (position 1112)]
DRB1*07:01 [7]
  IC50: 7.37 µM

## STPCNGVEGFNCYFP [… (position 477)]
DRB1*15:01 [8]
  IC50: 6.82 µM

## AWENTTIDLTSEKPA (modifications not checked) […]
I-Ab (mouse), P14434
  IC50: 10 µM

B1: TCR_74 (protein)
chain 1: GQNIDQPTEMTATEGAIVQINCTYQTSGFNGLFWYQQHAGEAPTFLSYNVLDGLEEKGRFSSFLSRSKGYSYLLLKELQMKDSASYLCAVRDLGGQKLLFARGTMLKVDL
chain 2: DAGVTQSPTHLIKTRGQQVTLRCSPKSGHDTVSWYQQALGQGPQFIFQYYEEEERQRGNFPDRFSGHQFPNYSSELNVNALLLGDSALYLCASSLGQGSPAGANVLTFGAGSRLTVL
[9]
  No. of Cells: 2 cells

B2: TCR_93 (protein)
chain 1: ILNVEQSPQSLHVQEGDSTNFTCSFPSSNFYALHWYRWETAKSPEALFVMTLNGDEKKKGRISATLNTKEGYSYLYIKGSQPEDSATYLCALDYGQNFVFGPGTRLSVLP
chain 2: DGGITQSPKYLFRKEGQNVTLSCEQNLNHDAMYWYRQDPGQGLRLIYYSQIVNDFQKGDIAEGYSVSREKKESFPLTVTSAQKNPTAFYLCASSIGSREAFFGQGTRLTVV
[10]
  No. of Cells: 2 cells
